Earlier results on one substance are cited in article PMC7139808.

The target of data set [1] is hemoglobin (Homo sapiens) (UniProt P69905).
Data set [2] has as its target hemoglobin (Mus musculus) (UniProt P01942).
Chain of UniProt P01942 (P01942 2-142, chain 1 of 2): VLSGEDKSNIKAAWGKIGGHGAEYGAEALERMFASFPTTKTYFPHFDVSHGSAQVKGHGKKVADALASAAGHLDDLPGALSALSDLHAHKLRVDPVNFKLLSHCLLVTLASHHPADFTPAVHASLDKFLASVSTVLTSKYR
Chain of UniProt P01942 (P02088 2-147, chain 2 of 2, further chain): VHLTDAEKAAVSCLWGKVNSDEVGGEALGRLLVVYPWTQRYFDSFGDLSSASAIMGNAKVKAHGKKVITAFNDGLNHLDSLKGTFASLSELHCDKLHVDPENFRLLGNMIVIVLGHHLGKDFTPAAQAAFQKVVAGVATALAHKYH

Chain of UniProt P69905 (P69905 2-142, chain 1 of 2): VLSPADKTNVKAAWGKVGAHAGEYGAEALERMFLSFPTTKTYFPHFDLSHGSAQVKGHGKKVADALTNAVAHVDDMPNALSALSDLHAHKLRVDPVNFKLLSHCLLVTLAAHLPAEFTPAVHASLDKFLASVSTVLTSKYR
Chain of UniProt P69905 (P68871 2-147, chain 2 of 2, further chain): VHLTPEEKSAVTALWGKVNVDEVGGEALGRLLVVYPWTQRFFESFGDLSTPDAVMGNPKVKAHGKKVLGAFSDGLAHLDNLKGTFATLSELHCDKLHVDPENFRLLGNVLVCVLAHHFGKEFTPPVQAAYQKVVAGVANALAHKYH

By Kd is commonly meant the free concentration of one partner at which half of the binding sites on the other are occupied at equilibrium, for simple one-to-one binding. Turning to IsdB (from UniProt A7X146), the Kd in data set [1] is 55 nM; in data set [2] it was 980 nM.
